Target: the molecule itself
Experiment: […]

B1: Ebola virus transmembrane glycoprotein GP (natural protein)
chain: IPLGVIHNSTLQVSDVDKLVCRDKLSSTNQLRSVGLNLEGNGVATDVPSATKRWGFRSGVPPKVVNYEAGEWAENCYNLEIKKPDGSECLPAAPDGIRGFPRCRYVHKVSGTGPCAGDFAFHKEGAFFLYDRLASTVIYRGTTFAEGVVAFLILPQAKKDFFSSHPLREPVNATEDPSSGYYSTTIRYQATGFGTNETEYLFEVDNLTYVQLESRFTPQFLLQLNETIYTSGKRSNTTGKLIWKVNPEIDTTIGEWAFWETKKNLTRKIRSEELSFTVVSNGAKNISGQSPARTSSDPGTNTTTEDHKIMASENSSAMVQVHSQGREAAVSHLTTLATISTSPQSLTTKPGPDNSTHNTPVYKLDISEATQVEQHHRRTDNDSTASDTPSATTAAGPPKAENTNTSKSTDFLDPATTTSPQNHSETAGNNNTHHQDTGEESASSGKLGLITNTIAGVAGLITGGRRTRREAIVNAQPKCNPNLHYWTTQDEGAAIGLAWIPYFGPAAEGIYIEGLMHNQDGLICGLRQLANETTQALQLFLRATTELRTFSILNRKAIDFLLQRWGGTCHILGPDCCIEPHDWTKNITDKIDQIIHDFVDKTLPDQGDNDNWWTGWRQWIPAGIGVTGVIIAVIALFCICKFVF
In the case of B1, the “stoichiometry N” value is reported as 3.

From doi:10.1101/2021.04.21.440744 (bioRxiv, 2021)
